How the values were obtained:
[1] = target: GLA cross-linked soluble BG505 SOSIP trimer (GLA-SOSIP trimer) (HIV-1 BG505); assay: ELISA; capture ELISA: plates coated with 4 ug/mL mAb 2G12, SOSIP or GLA-SOSIP trimer (0.2 ug/mL) captured, titration series of biotinylated mAbs or ligand; binding index = AUC on GLA-SOSIP trimer / AUC on SOSIP trimer
[2] = target: GLA cross-linked soluble BG505 SOSIP trimer (GLA-SOSIP trimer) (HIV-1 BG505); assay: SPR; ProteOn XPR36, GLC chip with human antibody capture kit; 2G12 captured, then about 600 RU of trimer; dilution series of Fab passed over for 180 s, 600 s buffer; HBS-EP+ pH 7.4 with 1 mg/mL BSA; binding index = signal ratio GLA-SOSIP trimer / SOSIP trimer

| Substance | fold loss of binding against SOSIP trimer (ELISA binding index) [1] [fold] | fold loss of binding against SOSIP trimer (SPR binding index) [2] [fold] |
| --- | --- | --- |
| PGT145 (mAb) (antibody) | 3.3 | – |
| PGT145 Fab | – | 5.3 |

— PMC5944921
